Our source for the binding signal (% looped molecules) and binding signal (% operator occupancy) values is paper PMC5477534.

The subject of the data set is lac repressor (LacI). Kind of data set: SFM imaging. The settings on record: streptavidin bound, SFM: 7.5 nM LacI, about 30 min incubation, 100 uM NTPs for 60 s, EDTA quench, poly-L-ornithine-coated mica, buffer, salt, pH and temperature not in the ….

For the substance Os-400-O1 SFM template, the binding signal (% looped molecules) stood at 50 (7.5 nM LacI, with transcription (NTP), 3'/downstream-end biotin) and 34 (7.5 nM LacI, without transcription, 3'/downstream-end biotin). Further, the binding signal (% operator occupancy) (7.5 nM LacI, without NTP (drops about 20% with transcription), 3'/downstream-end biotin) was > 90.

O2-400-O1 SFM template: the binding signal (% looped molecules) is 14 (LacI, with transcription (NTP), downstream-end biotin) and 12 (LacI, without transcription, downstream-end biotin).
